According to the DeepSol protein solubility set:

experiment: soluble on expression in E. coli; label from the status in PepcDB or PDB records

Row | Sequence | soluble on expression in E. coli
1 | MAPRSILITGANRGIGLGLVKQFLKNEGIQLVIATCRNPSKADELNSIADSRLQIFPLEIDCDDSIKKLYENVDTLVGTDGLTVLINNAAICSVYEIEGQISRTYMRQQIETNSVSTAILTQNFIPLLKKASAKNGGEEYSTDRAAIVNISSGAASIGYIDDKQPGIYIAYRMSKSALNSFSKSCSVELAKYHILVTAMCPGWVKTDMGGENGWEEVDDATEKIMKSILKLGAAQHGAFINSSLEVYPN | not soluble
2 | MAPRSYWKGYLKLSLVTCPVTLMPATSEAERVRFRTLNGRTGHPVVSRYLDAETGDVVDDDDQVKGYPRSETEHVILEEEELDAVALESARTIDIDCFVPSDEIAWIWYDRPHYLMPADPIGEEAFAVIREAMRATDRSGVARLVLGGRERAVLLMPRGEGIILWTLRYGDEVRPEEAYFGDLAAGKPDPKALTLVKRLIEERTRTWEPGMVEDPVQENLLELIRSKKPKKRSRKAGAKAPKGGDNVVSIMDALRKSIEGKG | not soluble
3 | MAPRTYASVLTTPRGPAPLALYCPEAPECPKLEAISNLSFQQITQQAGTSNDQGFEFENTYVEHRINQEIESFVDTHHQEPLRKAAAQFRAVMKQEYPDSTCFITGSYPAGVDIFSSDIDFTVKVPTLEGANPFLKLMQLRKELSCYYTIFSKAYVQKGNIPVLQLMHAETKVSIDVTIDNDTSKRNTQLLAFYSQLDTRFPLLCKAMKAWAASCGVEGASRGRLNSFSLCLMLIHYLQTVQVLLNIQEIFPELNGDIVVEDDNYMKRDLKIEILEKGAFDFNQNTSSLAVLFIGFMKYYSEFNFKWNWISIKHGNVLKKKWSKTRVPKNGMPKDCRFIVVADPLLEIPRNCAGTVRQQNYMERIQLEFREEYERILKRKTIFNLYQCNWSRKLRKEGMERDLQIMILQDELRKLRIANLPTEEEVPWGTVVDFTSPRTFSPTNQHPKVFWCSEQTTENQRRDNLWPELLRTNPYAIFENLI | soluble
4 | MAQEKMDLDFEADTSEGATLRRSNSAPLIHVLSDLSQVFEPYPLRTGRTSTAIMSHHSLEEGLDMMNRETTNEREAQAGMQISQSWDESLSLSGSDFDKPEKLYSPKRIDFTPVSPAPSPTRGFGKQCLSPSLQMFVSSSGMPPSPVLNPRHFSRRSQSPVKCIRPSVLGPLKRKGEMEMESQPKRPFQGTTSMLSTNPAQLSDFSSCSDILDGSSISSGLSSDSLATGSAPAESPVACSNSCSPFILMDDLSPK | not soluble
5 | MAQGLIEVERKFAPGPDTEERLQELGATLEHRVTFRDTYYDTSELSLMLSDHWLRQREGSGWELKCPGVTGVSGPHNEYVEVTSEAAIVAQLFELLGSGEQKPAGVAAVLGSLKLQEVASFITTRSSWKLALSGAHGQEPQLTIDLDSADFGYAVGEVEAMVHEKAEVPAALEKIITVSSMLGVPAQEEAPAKLMVYLQRFRPLDYQRLLEAASSGEATGDSAS | soluble
6 | MAQGNPLTPEEIELLHAGDEENDNTDTLMVIRVPNDGSSATAISIPRDTYVHDENVGNLKINGVYRAYKNRKASELVNSGESDQKHIDELSKEAGRKALISSISDLTGVTVDHYAEVGLLGFVLLTNAVGGVDVCLNNDVYDEFSGADFKAGQQTLRDGQALAFVRQRHGLPRGDLDRIVRQQAFMASLVAKVLSSGTLTNPSKLSDLGEAVSRSVVIDKNWDVMSFANQLQNLAGGNVKFNTIPVTSIDGVGDYGESVVTVDKNQVHQFFDRLLNGNNGEETPTSDSEAPAENPHTSTTIDVLNATSTTGLASQVAGHLSAKHYTIGNIGNALEGMYHESQIVAADPNNEAVKAIAAELGGLPITQRNDLEHHHHHH | soluble
7 | MAQQAPDREKALELAMAQIDKNFGKGSVMRLGEEVRQPISVIPTGSISLDVALGIGGLPRGRVIEIYGPESSGKTTVALHAVANAQAAGGIAAFIDAEHALDPEYAKKLGVDTDSLLVSQPDTGEQALEIADMLVRSGALDIIVIDSVAALVPRAEIEGEMGDSHVGLQARLMSQALRKMTGALNNSGTTAIFINALREKIGVMFGSPETTTGGKALKFYASVRLDVRRIETLKDGTDAVGNRTRVKVVKNKVSPPFKQAEFDILYGQGISREGSLIDMGVEHGFIRKSGSWFTYEGEQLGQGKENARKFLLENTDVANEIEKKIKEKLGIGAVVTAEADDVLPAPVDF | soluble
8 | MAQQLLMPKATAVWLVDNTALSFDQIAQFCKLHPLEVKAIADGESAQGIKGLDPIATGQLSRDEIARAEGNPNHKLKLSEPKVRVPDSKRKGPRYTPVSKRQDRPNAILWLVRNHPELKDAQISRLVGTTKATIEQIRERTHWNSANLTPMDPVTLGLCSQIDLDLEVERASKGRPLPSAAETGATLESAQETEKLDYGQDREEEKEIDADAVFAKLKSLKSDRKDDEEDDY | not soluble
9 | MAQSKESPDEAKQDEIIFNIGDTINDYEIVSKIDEGGFGQVFKVTKDHKTFYAMKLESNFQVGGSAIKLEINVLSQLPKNTVFPELICGGKRPRYHFLVLELLGDNLKALKAQSPNPSVFSDGTWSRIGIQCLYAMKMMHDSGFVHRDIKPSNFAIGYSTASESRSRRVLLFDFGLARKFVKKEKNLAPIVTKKESKISKSKTLPSKGPSTKSKDLKPGRSKPILNRKAEQMKIKKNFNMLIPPKSIDQSQRTAEEKVDDEEFTFRRARPHTDFRGTFQYASPNAHLQLELGRHDDIWSLMYMVAEFFVELPWTSNEEIALEELKNQSSILRLFSDGKNIVSSWIHDRIFSDKNPSRLTPEMRGQLDEIDKNLKSCNYYSSPKYDIVYQFFKDSMTKAKVTWTTPYDWETIGKSSEDFSKKSNGKRAVWENPGAFFKKGRWDALPLPLQSPHISIRKSSSKHPKPSAKGSKKAVQARIQNFSKEDSVEADEAPTPMLKSTKKDGMGGQKGGLKGSIE | not soluble
10 | MARAVHRSGLVALGIATALMASCAFAAKDVVVAVGSNFTTLDPYDANDTLSQAVAKSFYQGLFGLDKEMKLKNVLAESYTVSDDGITYTVKLREGIKFQDGTDFNAAAVKANLDRASDPANHLKRYNLYKNIAKTEAIDPTTVKITLKQPFSAFINILAHPATAMISPAALEKYGKEIGFYPVGTGPYELDTWNQTDFVKVKKFAGYWQPGLPKLDSITWRPVADNNTRAAMLQTGEAQFAFPIPYEQATLLEKNKNIELMASPSIMQRYISMNVTQKPFDNPKVREALNYAINRPALVKVAFAGYATPATGVVPPSIAYAQSYKPWPYDPVKARELLKEAGYPNGFSTTLWSSHNHSTAQKVLQFTQQQLAQVGIKAQVTAMDAGQRAAEVEGKGQKESGVRMFYTGWSASTGEADWALSPLFASQNWPPTLFNTAFYSNKQVDDFLAQALKTNDPAEKTRLYKAAQDIIWQESPWIPLVVEKLVSAHSKNLTGFWIMPDTGFSFEDADLQ | soluble
11 | MAREFKRSDRVAQEIQKEIAVILQREVKDPRIGMVTVSDVEVSSDLSYAKIFVTFLFDHDEMAIEQGMKGLEKASPYIRSLLGKAMRLRIVPEIRFIYDQSLVEGMRMSNLVTNVVREDEKKHVEESNLEHHHHHH | soluble
12 | MAREGCLALNVECRGRRVKFEARMETLPNGRQILVDRVVFPDSVAVLPLVEKDGEWHVVLVRQFRPSIGKWTLEAPAGTLKEGETPEAAAARELEEEAGLKAKALVRVGGGHVSPGYSTEYIHLFLAYSLEKGEMSPEEHEVIEGVVEMRLSEALESIESGVIEDLKTIALVMAAASRVHQLEAGGGV | soluble
13 | MARFSGKSVIITGSSNGIGRSAAVIFAKEGAQVTITGRNEDRLEETKQQILKAGVPAEKINAVVADVTEASGQDDIINTTLAKFGKIDILVNNAGANLADGTANTDQPVELYQKTFKLNFQAVIEMTQKTKEHLIKTKGEIVNVSSIVAGPQAHSGYPYYACAKAALDQYTRCTAIDLIQHGVRVNSVSPGAVATGFMGAMGLPETASDKLYSFIGSRKECIPVGHCGKPEEIANIIVFLADRNLSSYIIGQSIVADGGSTLVMGMQTHDLMSVLSQ | soluble
14 | MARFVVLVIDSFGVGAMKDVTLVRPQDAGANTCGHILSQLPHLQLPTLETLGLINALGYAPGDMQPSDSATWGVAELQHEGGDTFMGHQEILGTRPLPPLRMPFRDVIDRVEQALVSAGWQVERRGDDLQFLWVNQAVAIGDNLEADLGQVYNITANLSVISFDDAIKIGRIVREQVQVGRVITFGGLLTDSQRILDAAESKEGRFIGINAPRSGAYDNGFQVVHMGYGVDEKVQVPQKLYEAGVPTVLVGKVADIVNNPYGVSWQNLVDSQRIMDITLNEFNTHPTAFICTNIQETDLAGHAEDVARYAERLQVVDRNLARLVEAMQPDDCLVVMADHGNDPTIGHSHHTREVVPVLVYQQGMIATQLGVRTTLSDVGATVCEFFRAPPPQNGRSFLSSLRFAGDTLGKWYYLNSNGAMVTGSQTIDGKVYNFASSGEWI | not soluble
15 | MARHFGMALAPWDVMGGGRFQSKKAMEERRKNGECIRSFVGASEQTDAEIKISEALAKVAEEHGTESVTAIAIAYVRSKAKNVFPSVEGGKIEDLKENIKALSIDLTPDNIKYLENVVPFDIGFPNTFIVLNSLTQKYGTNNV | soluble
16 | MARHHHHHHMPEGKIIKALSGFYYVLDESEDSDKVIQCRGRGIFRKNKITPLVGDYVVYQAENDKEGYLMEIKERTNELIRPPICNVDQAVLVFSAVQPSFSTALLDRFLVLVEANDIQPIICITKMDLIEDQDTEDTIQAYAEDYRNIGYDVYLTSSKDQDSLADIIPHFQDKTTVFAGQSGVGKSSLLNAISPELGLRTNEISEHLGRGKHTTRHVELIHTSGGLVADTPGFSSLEFTDIEEEELGYTFPDIREKSSSCKFRGCLHLKEPKCAVKQAVEDGELKQYRYDHYVEFMTEIKDRKPRY | soluble
17 | MARILAIDDEDGILYIIKSALEKEGHEVTAVSNPLTIPKEKFCHYDLILLDVMMPEIDGFTLCKEIRDFVDSPIVFLTAKTMEKDLITGLSLGGDDYITKPFGIGELRARVSAHVRREHREKQNAFFLSGLTFHLSCKEIWYDDTSIAFTKSEYGICEYLALNHGQVFSREKIYENVFGYEGESDNQVIVEHIKNIRHKLSKYGMNPIETVWGIGYKWRK | not soluble
18 | MARNAEKAMTALARWRRMKEEEERGPIARRPHDVKDCRNLSDAERFRREIVRDASKKITAIQNPGLGEFKLRDLNDEVNRLIKLKHAWEQRIRELGGTDYRKYAQKELDAIGRETGNSRGYKYFGAAKDLPGVRELFEKSTEGEEQRRHRADLLRNIDAHYFGYLDDEDGRLIPLEKLIEEKNIERINKEFAEKQAQKQQTASDAAPENIYKVEEDDDDDLETQESTVIGEDGRPMTIRHVLLPTQQDIEEMLLEQKKQELMAKYLD | not soluble
19 | MARPLVPSSQKALLLELKGLQEEPVEGFRVTLVDEGDLYNWEVAIFGPPNTYYEGGYFKARLKFPIDYPYSPPAFRFLTKMWHPNIYETGDVCISILHPPVDDPQSGELPSERWNPTQNVRTILLSVISLLNEPNTFSPANVDASVMYRKWKESKGKDREYTDIIRKQVLGTKVDAERDGVKVPTTLAEYCVKTKAPAPDEGSDLFYDDYYEDGEVEEEADSCFGDDEDDSGTEESLEHHHHHH | not soluble
20 | MARQTMNPSIRYLIGVDGGGTGTRIRLHASDGTPLAMAEGGASALSQGIAKSWQAVLSTLEAAFQQAGLPAAPASACAIGLGLSGVHNRQWAGEFESQAPGFARLSLATDGYTTLLGAHGGQPGIIVALGTGSIGEALYPDGSHREAGGWGYPSGDEASGAWLGQRAAQLTQMALDGRHSHSPLTRAVLDFVGGDWQAMMAWNGRATPAQFARLAPLVLSAARVDPEADALLRQAGEDAWAIARALDPQDELPVALCGGLGQALRDWLPPGFRQRLVAPQGDSAQGALLLLQRPSTRLEHHHHHH | soluble
